Reference: patent US20170173107A1
Positions of bridges follow the written chain, without caps; N, C: chain ends. Non-standard residues stand in square brackets, D forms with d. ABM2 = diphenyl-cyclohexanol phosphate ester hexanoic acid tag; Trp(1-Me) = Cn1cc(C[C@H](N)C(=O)O)c2ccccc21; NMeI = CC[C@H](C)[C@H](NC)C(=O)O; Sar = CNCC(=O)O

B1: Cp20 (Ac-Ile-[Cys-Val-Trp(Me)-Gln-Asp-Trp-Sar-Ala-His-Arg-Cys]-mIle-NH2) (peptide)
peptide: Ac-ICV[Trp(1-Me)]QDW[Sar]AHRC[NMeI]-NH2
modifications: disulfide 2-12
SMILES: CC[C@H](C)[C@H](NC(C)=O)C(=O)N[C@H]1CSSC[C@@H](C(=O)N(C)[C@H](C(N)=O)[C@@H](C)CC)NC(=O)[C@H](CCCNC(=N)N)NC(=O)[C@H](Cc2c[nH]cn2)NC(=O)[C@H](C)NC(=O)CN(C)C(=O)[C@H](Cc2c[nH]c3ccccc23)NC(=O)[C@H](CC(=O)O)NC(=O)[C@H](CCC(N)=O)NC(=O)[C@H](Cc2cn(C)c3ccccc23)NC(=O)[C@H](C(C)C)NC1=O
B2: ABM2-Cp20 (ABM2-Ile-[Cys-Val-Trp(Me)-Gln-Asp-Trp-Sar-Ala-His-Arg-Cys]-mIle-NH2) (peptide)
peptide: ABM2-ICVWQDW[Sar]AHRC[NMeI]-NH2
modifications: disulfide 2-12; not fully specified (residue 4); printed as ABM2-Ile-[Cys-Val-Trp(Me)-Gln-Asp-Trp-Sar-Ala-His-Arg-Cys]-mIle-NH2

Legend:
[1] = molecular target: plasma proteins of C3-depleted serum; experiment: rapid equilibrium dialysis, 10 µM peptide, C3-depleted serum, 37 °C 24 h, UPLC-HDMS
[2] = molecular target: plasma proteins of C3-positive serum (C3-depleted serum with 5 µM purified C3 added); experiment: rapid equilibrium dialysis, 5 µM peptide, C3-positive serum (5 µM C3), 37 °C 24 h, UPLC-HDMS
[3] = molecular target: plasma proteins of C3-depleted serum; experiment: rapid equilibrium dialysis, 5 µM peptide, C3-depleted serum, 37 °C 24 h, UPLC-HDMS
[4] = molecular target: plasma proteins of C3-positive serum (C3-depleted serum with 5 µM purified C3 added); experiment: rapid equilibrium dialysis, 10 µM peptide, C3-positive serum (5 µM C3), 37 °C 24 h, UPLC-HDMS

Row | Binder | % bound [1] [%] | % bound [2] [%] | % bound [3] [%] | % bound [4] [%]
1 | B1 | 3 | > 99 | 7 | 84
2 | B2 | > 99 | > 99 | > 99 | > 99
